test: soluble on expression in E. coli; label from the status in PepcDB or PDB records

Soluble on expression in E. coli, not soluble:
MGSDKIHHHHHHMKSTIYKALIGATLIIGLSSCVNNWLDVEPGDQVEADEAVTTSADLSSVRAGMYQIIKGTSDFKDYYAARMFYYGEVRGEDMQTEKSGSRSQLCYDMTYSTADNAPSIWQTPYIVIGRANRIIEAAESGKLTDKEEAADIIAQYAAEAKVARAMAHFDLVRVYGKTYTAPDAPNSLGIPVVTTVLGSDSKLIRNTVSEVYTQVIKDLNEAINSKALSESSTPGYINLWAAKALLSRVYLTQGDNQKSLDVAEDIIKNSPYKLWKNEEYVGAWSKISGVHSNEMLFEIAITGSTDWTDREGIAYLYNEDGYADIIATKKFLDLLNEDPNDVRLGVFLAPTTKDFKKLYGTNTVFLNKYPADGLSDLRYNNVPLVRLSEVYLNAAEAAAKLGNQNDKAVEYLDAIVKRANPNKTVKGTTVTVDRVLLERRKELIGEGHRFFDAMRNNETVIRYTSKEDQGWQQALKEEARSFNRDFYKTLLPIPQDEIDANPSMKDQQNTGY
MGSDKIHHHHHHMKVFFVVDIKSGKVVAGKGGERESYPPITAISRLVSSDDALKVIEEIKPRFLYAADLDRIVGLGDNFSLLSKLSKRVEELIADCGFRSPEELEKLPFTPVVGTETFDITQLDRKCYVSLDFKEKFLDASGKFESWEEVVKFLNSFDLYGLIVLPIHAVGAMKPDLSVLTKTLELSEHPVMLGGGISGVEDLERLKEMGCSGVLVATAVHKGKIPLDVVRKGKF
MGSDKIHHHHHHMKVLEKDYQINSVRKAIDAGANSIIALPTGGGKSICILKLCQAMPDKKVVISLRNAALVPQLLHTLTINGLSVSVVKSGYKYIAGGDVTLVMEQSFGRRKHLNIQCDVLLRDEYHVGCMGGVYIAMREELSPDLIIGLTATPIDRLGVYIDKSMQLIEETTTKMLIEAGELAKPVYKVPSLSQEIDYSAVKMYRGDFSVSGLDNILLEHCSLVAQQTVDDALSHGRKVMLFANSINHVESLSEAFDLLGIEHERVHSQRSSDENDESIRRYKSNEVRLIINMSMLTIGFDDPTTDCVVLARPTKILRLYLQIIGRCLRASKGKTSALILDLAQCISTHGFAEDLRDFTRKTSKSAAIMAERLSVTNIGQFVDGEFTYNESIERKVVKKRAPVIRRKPRDGLVASKELVDRAASNRAAALLRLNPRMEKLVSTIELVNIVYEQQDESSKMLDEVAMVKLVALIGFAYSDALVDSCTALVEGLHAQNQSIRGLPLRVSNLITSIAMQDLGVKEVVTKS
MGSDKIHHHHHHMKVLNLLSAGGIGGIEQLCSNIAKYANYDNTFCFMFEDGQIYKEMKKSGADVISFAECSSKKISKKRWESLCELAEKADIIVTHHCTIALHIYYCALKKRFKNKKFVMTIHSCFDPELNYNYGSWIKNKIAKWNIEEALKISDKIIFVSEAGRRSYLDNFNIDVTKTKVIYNGVEVSAISIDSIKLENNYTRITYIGRVEKIKGLDLFVCALKKLLNDDSNIKVWIIGDGSFRNELEMLVQKLDLTGVIEFTGAKRNIGDYLRKTDLFIYPSTCQEVFGISIVEAMSYGVPCVANNVGGIPEIIENDYNGFITSKTNDDELYKCMYKFIKLDPKLITQMRNNCLLTAEKFSINCTIDNLEKTLKGMM
MGSDKIHHHHHHMKVTILLPAYNAALYLRDSLDSIMRQAFKDFDVLLIDDGSMDDTSKIAIEYSNIDRRIKYYKNEKNIGLIKTLNKGLSLAKGEYIVRMDADDIMFDDRLYKQVKYMDSNPECFVCGGQMEYIGGLTGMAPILPQKYEDLLYLSLINCPLYHPTTIIRNSAIKQFGLKYNDSYKHAEDYKFWSDIIFSHPNSIANIKDVVLFYRISNNQITAKYSDEQDLISKIVRRENVQHVLVPYGIKLPEVVNCEIIEKVSSLIRKEHIDAAEILTLVLCMLYMSMENSYVRIKHFILSNDYSLFVKNSSRIKLGLSVLLSGIFSNRGKRFVI
MGSDKIHHHHHHMKVTNYQGATIDPYSKGLGMVPGTSIQLTDAARLEWNLLNEDVSLPAAVLYADRVEHNLKWMQAFVAEYGVKLAPHGKTTMAPQLFRRQLETGAWGITLATAHQVRAAYHGGVSRVLMANQLVGRRNMMMVAELLSDPEFEFFCLVDSVEGVEQLGEFFKSVNKQLQVLLELGVPGGRTGVRDAAQRNAVLEAITRYPDTLKLAGVELYEGVLKEEHEVREFLQSAVAVTRELVEQERFARAPAVLSGAGSAWYDVVAEEFVKASETGKVEVVLRPGCYLTHDVGIYRKAQTDIFARNPVAKKMGEGLLPALQLWAYVQSIPEPDRAIIGLGKRDSAFDAGMPEPARHYRPGNEAPRDIAASEGWEIFGLMDQHAYLRIPAGADLKVGDMIAFDISHPCLTFDKWRQVLVVDPAYRVTEVIETFF
MGSDKIHHHHHHMKYALGNILYYWPKEDVEAFYQAAVNSSADIVYLGETVCSKRRLMKVADWFNVAREVANSGKQVVISTLALLQAPSELTELRRYVENGEFLLEANDLGAVNIAAERNLPFVAGHALNCYNAYTLRVLHKQGMVRWCMPVELSRDWLQNLLNQCEELGFRHQFEVEVLSYGHLPLAYSARCFTARSEDRPKDECETCCLSYPQGRKMLSQENQQVFVLNGIQTQSGYCYNLGNELTSMRDLVDIVRLSPNDITTPAMLDTFRANEQGNMPLTLQNQADCNGYWRRVAGLELVQ
MGSDKIHHHHHHMKYFVSRSIYTFNSGVEHSQANRTLLFNASGDQARYVTRDYNRLWVRDAERVNLNSTNVLNMYDFFQGTSAVECVQLPVREFKQLALNEYQLVEHGADYSTVDHAGRQLARINIMPGTVGLVGDIEYYDRFETVVSRENFDWRGFKSSIDYFHPDGSLGVRRFLNLAGEVVLENTYMNVEGQLQPTMWKLVNYHGKNYRFDTEDQLFLFFLNEVTQQTTDNVVVSDHRELDYVIADVENATSKWVALHGSHVDQGGTPFAAYSIALQIRAQDFDGIIVPTQEQQLELKEQFPELNVQVAPDVAISPELINSKPVWLRDRIAGRIIFSGRLEADKRPMEALKAFFKVLEQFLTLRWNLGDILTTKTC
MGSDKIHHHHHHMKYRFENHCVDKQCNLHIFADGKAAHSSTPEDGVNAVTHLAALLSPELNDKPWPKTSASLTVAAMNELVGLGIYAEQFGDLAYKDDFMGPLTLAPTVVVQTQKGTEVTINLRRPVGKTPELLAKQAREALALWQDKHQVQLADIESYWGEPMVMKGAPQQQTLLDVFAHFTGIVDPKPVAIGGSTNSKLFPNALSFGPAMPGVEYTGHTEKEFITHKQFMLNLKMYTAAFIELSAVK
MGSDKIHHHHHHMKYTYREAGVDVERGESFAKTIKSAVKLPEWVMKEPTGYASILTITTPPVVVTADGIGTKLILHRKHGTWRYAAEDLVGMNYNDLVCVGARPVAFLDYLGVERISEEHESFIKELVNVLDSVDVKLVGGETAEMPDVYRGDWDAVGFAVGVLEKRIPVDKIKEGDVIVGIPSSGFHSNGWSLIRRIIKEESIKIEELPFELLKGTRIYREVIELFDLVKGIAHVTGGGVVRALKRVLGKLGAHVSLPKRDFVDWILKYVDFNEAVNTFNMGVGMFLIVEKQKVDEVLARVDGTVVGKVSSDWRIEYGGEGG
MGSDKIHHHHHHMLATYLKSLNENDRSLYNEGEDVIQGLIQSPKTLPPKYFYDDYGSELFEQICELSEYYPTRTEAWILRQYADEIAQITGNCELVELGSGSSTKTLFLLDAYQKIASHCRYIPIDVSHGILKSSVLKLQQKYPNFFVEGLIGTYEQALIKLESTFAASRMIFFLGSSLGNFNPRECDDFLRQITRTLQAGDYFLLGIDLQKPKEILEPAYNDSQGVTAAFNLNILSHLNWRFQGNFDLSLFTHQAIYNENDAQIEMYLHCQKSHEVSLEALDLQVSFAGGESILTEISRKFDLVNMQKQLETHGLKTLKTWTDPNQWFGLILCQA
MGSDKIHHHHHHMLDKIELFILDMDGTFYLDDSLLPGSLEFLETLKEKNKRFVFFTNNSSLGAQDYVRKLRNMGVDVPDDAVVTSGEITAEHMLKRFGRCRIFLLGTPQLKKVFEAYGHVIDEENPDFVVLGFDKTLTYERLKKACILLRKGKFYIATHPDINCPSKEGPVPDAGSIMAAIEASTGRKPDLIAGKPNPLVVDVISEKFGVPKERMAMVGDRLYTDVKLGKNAGIVSILVLTGETTPEDLERAETKPDFVFKNLGELAKAVQ
MGSDKIHHHHHHMLDPAGARVQIAKGRRDAADEPEDEDQMTRLEAFGDRKFPAAELILSSEGRGWDGIGTQVRRHPAGEIPVPVPDQMEVTLAIAGSQTGRVERRSGSAFQNTTARPGTLWFCPIGVTEDSIRITETLPMVQHVFLAKSQFDSLSELSSRSLSPASIAYLADVNDELVRQICQRIYREAQEETSSGKILIDCLAQSLVAHLVSDYSHDSRIHLGPDSGPSKLDDARLRRVLDYIYGNIDQDLSLSKLSEVACLSKHHFARAFREATGTPPYRFISERRLDHALNLLKDSRLSLAEIAYICRFSSQATFTRAFRRHVGTSPGEYRHLSRT
MGSDKIHHHHHHMLDVVANQDKSIVVKQLRYGRDNEVLVVDEWQLHPAEHWAIFATDSYCGSLLGRILTGDIQPDEGTIAGLPQRIGWVSLGLQQVLLERELEKDELDYGSSVEFLVLECCQDAAQLAPLLQKVGLEPLRLRGFRQLSTGETRRVMLARALAMLPQLLILDDPYAGLDVEHQASLSELLSEVAEHTQLLIITSRQEELPPCISHVALFNGEMLKSGQSVHKLSQPMSIEQWHNHPVMAQLNALSAQRSNELLALMERQRHNAEAFDPLVEIKNGKVEYVSGLIFSGVNWRIEAGQHWQVRGPNGCGKSTLLGLILGDHPQCYSNDITLFGRPRGSGESIWQIKQRIGIVSSALHLQYRVSCSVLDVLLSGFFDSIGLYQKPTKPQLDLAKEWLAILHMTGLASTSFKKLDYGQQRLLLIGRALIKQPLLLILDEPYQGLDFINRTLVMRALKMIAEHHLSQLLYVSHHREDALPAIHHFVDFIKQGDGYSVQVSDSESKD
MGSDKIHHHHHHMLITNVRPWGGDNVDLEVHEGRIAAVHPAGTGDVSADAAGGTIDGRGRIAFPAFTDVHVHLDSTRIGLPFREHTASPGVWNMMCNDRENWRDTPIPYADVVAGTLERMIARGTTRVRSYAQIDVDCKLERFEAVLAAKERFAHAAEVEVMAFPQAGLLLEDGTVPLLEEALRAGATTIGGIDPCQLDRDPARHLDIVFELAEKYGVDVDIHLHEPGHLGVFSAELIFERTRALGMQGRVSLSHAYDLANVHPDVTARIVEQMAELDVAWATVAPASGGAQFDLARMTEAGIRVGLGEDGQRDYWSPYGNCDMLDRTWQLAFTHRLRKDRLIEHCAAIATVGGASIMDRTVPRLTSPDDRPGLTPGDRADVVLVDGETVTSTVMDRGTDRTVIHDGRLVADGLAVLPRAAG
MGSDKIHHHHHHMLLKSPDKSPEKILKLFDEVYSKARIFYLLRTAIDLNLFEYLSSFKTAKELAEILDADLILMEYMLKILNELDLIESKVVSERIYYKNAEITNIYLKKDSNYSIINPIYSYFENIKNWENLADILKNKSNCSNMDVDNFFPKVVRRMADECKCWELQKVLNYMAKYEEFKNAKKLLDLAGGHGLYAIGFSMLNRNLKCYVFDLPNVIEETKKFIKKYNAKNVFTITGDFYKDDIGKGYDIIFCSYNPGGKNPKIAEKVYNALNEGGLFINKQFFPDKEEGIEDYINNMEWNFSKPEGLKKGKIRYTFEGDLNLNDYLKYLEDLGFKILEVVDMSELLGLDENSSSFRKSANPSDSLRFKDNSPAKMIVAKKL

Source: the DeepSol protein solubility set
